Experimental data taken from US5180678A, “Uses of substantially pure interleukin-9 receptor” (Ludwig Institute for Cancer Research, priority 1992, dated 1993).

Target: T1, IL-9R (Mus musculus, UniProt Q01114)
T1 sequence (Q01114 38-468): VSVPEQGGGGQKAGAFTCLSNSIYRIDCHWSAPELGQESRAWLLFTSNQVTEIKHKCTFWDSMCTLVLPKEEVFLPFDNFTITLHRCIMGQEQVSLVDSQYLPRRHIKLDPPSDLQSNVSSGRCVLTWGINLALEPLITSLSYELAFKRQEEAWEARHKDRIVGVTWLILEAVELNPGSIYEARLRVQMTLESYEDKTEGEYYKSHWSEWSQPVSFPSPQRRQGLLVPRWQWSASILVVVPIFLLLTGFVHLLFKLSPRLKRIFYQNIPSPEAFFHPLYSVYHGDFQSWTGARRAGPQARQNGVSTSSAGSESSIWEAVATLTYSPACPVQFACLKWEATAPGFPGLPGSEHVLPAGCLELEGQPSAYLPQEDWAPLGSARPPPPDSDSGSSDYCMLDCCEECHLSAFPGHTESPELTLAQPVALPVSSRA
Test: Cellular distribution of IL-9R: specific binding of 125I-labeled IL-9 to cell types
Design: a number of different cell types were tested for the presence of the IL-9R molecule; endogenous in cells
Method: The molecular nature of the IL-9R was studied via affinity cross linking experiments. In these, 5×10^6 cells (TS1)/ml were incubated for three hours at 4° C. in 140 ul of binding medium, either with 1.3×10^-10 M of labeled rIL-9, or the labeled cytokine mixed with 3.1×10^-8 M of the unlabeled material. After two washes with 1 ml of cold, phosphate buffered saline (PBS) at pH 7.4, cells were resuspended in 2.25 ml of cold PBS (pH 8.4), containing 1 mM MgCl2. Disuccinimidyl suberate, solubilized in dimethylsulfoxide, was added at a final concentration of 10 ug/ml. This cross links the cytokine to the cell. […] After a 30 minute incubation on ice, the reaction was quenched by adding 2.5 ml of cold 10 mM TRIS-HCl (pH 7.4) and 1 mM EDTA. The cells were centrifuged and the resulting pellet was resuspended in 50 ul of cold lysis buffer (Tris-HCl 126 mM, pH 7.5 containing 0.7% Triton-X100, 2 mM phenylmethylsulfonyl fluoride (PMSF)), 10 mM EDTA, 10 mM 2-mercaptoethanol, and, in some cases 0.2 mM pepstatin, 2 mM O-phenanthrolin and 0.1 mM leupeptin were included. […] Following extraction, the detergent mixture was incubated for 30 minutes on ice, with insoluble material being removed by centrifuging for 15 minutes at 10,000 rpm. Supernatant was boiled for 90 seconds in the presence of 3 mg/ml of SDS, and was diluted twice with lysis buffer.
Following the protocols of Example 5, a number of different cell types were tested for the presence of the IL-9R molecule.
±Cells were incubated with ^125 Ilabeled IL9.

For “IL-9: lymphokine interleukin-9, T-cell derived growth factor; in Tables II and III the 125I-labelled recombinant form is used”, the “Specific Binding” value (B lymphocytes LPS-blasts, 125I-labeled IL-9 3.2 × 10^-10 M) was “-- (below detection limit (<10 mol/cell))”, the “Specific Binding” value (B lymphocytes unstimulated, 125I-labeled IL-9 3.2 × 10^-10 M) was “-- (below detection limit (<10 mol/cell))” and the “Specific Binding” value (B-cell hybridoma 7TD1, 125I-labeled IL-9 3.2 × 10^-10 M) was “-- (below detection limit (<10 mol/cell))”. The “Specific Binding” value (CTL clone CTL P1:5, 125I-labeled IL-9 1.6 × 10^-10 M) was “-- (below detection limit (<10 mol/cell))”, the “Specific Binding” value (CTL clone CTL P1:204, 125I-labeled IL-9 6.2 × 10^-11 M) was “-- (below detection limit (<10 mol/cell))” and the “Specific Binding” value (CTL clone CTL P35:10, 125I-labeled IL-9 3.3 × 10^-10 M) was “-- (below detection limit (<10 mol/cell))”. The “Specific Binding” value (CTL clone CTL P35:48, 125I-labeled IL-9 1.3 × 10^-10 M) was “-- (below detection limit (<10 mol/cell))”, the “Specific Binding” value (CTL clone CTL P91:6, 125I-labeled IL-9 1.3 × 10^-10 M) was “-- (below detection limit (<10 mol/cell))” and the “Specific Binding” value (Carcinoa 3LL (Lewis Lung), 125I-labeled IL-9 6.2 × 10^-11 M) was “-- (below detection limit (<10 mol/cell))”. The “Specific Binding” value (Factor-dependent T cells ST2K9.4A2, 125I-labeled IL-9 4.1 × 10^-10 M) was 1415 mol/cell, the “Specific Binding” value (Factor-dependent T cells TS1, 125I-labeled IL-9 5.6 × 10^-10 M) was 2235 mol/cell and the “Specific Binding” value (Factor-dependent T cells TUC.51S1, 125I-labeled IL-9 1.3 × 10^-10 M) was 663 mol/cell. For the same substance, the “Specific Binding” value (Fibroblasts A-9, 125I-labeled IL-9 6.2 × 10^-11 M) was “-- (below detection limit (<10 mol/cell))”, the “Specific Binding” value (Fibrosarcoma MethA, 125I-labeled IL-9 6.2 × 10^-11 M) was “-- (below detection limit (<10 mol/cell))” and the “Specific Binding” value (KLH-primed lymph nodes (C57B/6 mice), 125I-labeled IL-9 6.2 × 10^-10 M) was “-- (below detection limit (<10 mol/cell))”. The “Specific Binding” value (Lymphoma LBRM-33-1A5, 125I-labeled IL-9 5.6 × 10^-10 M) was 599 mol/cell, the “Specific Binding” value (Macrophages Bone marrow derived, 125I-labeled IL-9 4.1 × 10^-10 M) was 195 mol/cell and the “Specific Binding” value (Macrophages P399D1, 125I-labeled IL-9 6.2 × 10^-11 M) was 16 mol/cell. For the same substance, the “Specific Binding” value (Macrophages PU5-1,8, 125I-labeled IL-9 1.3 × 10^-10 M) was 229 mol/cell, the “Specific Binding” value (Mast cell line L138.C, 125I-labeled IL-9 4.1 × 10^-10 M) was 331 mol/cell and the “Specific Binding” value (Mast cell line L138.8A, 125I-labeled IL-9 4.1 × 10^-10 M) was 2208 mol/cell. For the same substance, the “Specific Binding” value (Myeloid Cell Line DA-1, 125I-labeled IL-9 3.2 × 10^-10 M) was 18 mol/cell, the “Specific Binding” value (Myeloid Cell Line Ea3,15, 125I-labeled IL-9 5.6 × 10^-10 M) was “-- (below detection limit (<10 mol/cell))” and the “Specific Binding” value (Myeloid Cell Line FDC-P1, 125I-labeled IL-9 5.6 × 10^-10 M) was “-- (below detection limit (<10 mol/cell))”. The “Specific Binding” value (Myelomonocytic leukemia WEHI.3B, 125I-labeled IL-9 7.5 × 10^-10 M) was “-- (below detection limit (<10 mol/cell))”, the “Specific Binding” value (Normal lymph nodes, 125I-labeled IL-9 6.2 × 10^-10 M) was “-- (below detection limit (<10 mol/cell))” and the “Specific Binding” value (Plasmacytoma TEPC1033C, 125I-labeled IL-9 3.2 × 10^-10 M) was “-- (below detection limit (<10 mol/cell))”. For the same substance, the “Specific Binding” value (Spleen Cells, 125I-labeled IL-9 3.2 × 10^-10 M) was “-- (below detection limit (<10 mol/cell))”, the “Specific Binding” value (T lymphocytes ConA-blasts, 125I-labeled IL-9 3.2 × 10^-10 M) was “-- (below detection limit (<10 mol/cell))” and the “Specific Binding” value (T lymphocytes unstimulated, 125I-labeled IL-9 3.2 × 10^-10 M) was “-- (below detection limit (<10 mol/cell))”. The “Specific Binding” value (T-cell leukemia L1210, 125I-labeled IL-9 5.6 × 10^-10 M) was “-- (below detection limit (<10 mol/cell))”, the “Specific Binding” value (T-cell leukemia LEB, 125I-labeled IL-9 6.2 × 10^-11 M) was “-- (below detection limit (<10 mol/cell))” and the “Specific Binding” value (T-cell leukemia TH1, 125I-labeled IL-9 5.6 × 10^-10 M) was 273 mol/cell. For the same substance, the “Specific Binding” value (Thymocytes, 125I-labeled IL-9 3.2 × 10^-10 M) was “-- (below detection limit (<10 mol/cell))”, the “Specific Binding” value (Thymoma BW5147, 125I-labeled IL-9 6.2 × 10^-10 M) was 120 mol/cell and the “Specific Binding” value (Thymoma EL4.16, 125I-labeled IL-9 7.5 × 10^-10 M) was 263 mol/cell.
